± gives the standard deviation of the averaged measurements.
Experiment: total protein half-life in vivo (active degradation + dilution); higher = more stable protein
[1] = E. coli NCM3722 delta-clpP delta-lon delta-hslV, growth: N-lim chemostat, doubling time 6 h
[2] = E. coli NCM3722 delta-clpP, growth: N-lim chemostat, doubling time 6 h
[3] = E. coli NCM3722 delta-smpB, growth: N-lim chemostat, doubling time 6 h
[4] = wild type E. coli NCM3722, growth: C-lim chemostat, doubling time 3 h
[5] = wild type E. coli NCM3722, growth: C-lim chemostat, doubling time 6 h
[6] = wild type E. coli NCM3722, growth: C-lim chemostat, doubling time 12 h
[7] = wild type E. coli NCM3722, growth: N-lim chemostat, doubling time 6 h
[8] = wild type E. coli NCM3722, growth: P-lim chemostat, doubling time 12 h
[9] = E. coli NCM3722 delta-hslV, growth: N-lim chemostat, doubling time 6 h
[10] = E. coli NCM3722 delta-lon, growth: N-lim chemostat, doubling time 6 h
[11] = wild type E. coli NCM3722, growth: N-lim chemostat, doubling time 12 h
[12] = wild type E. coli NCM3722, growth: P-lim chemostat, doubling time 6 h

Q: For “MKLSRISAINWNKISDDKDLEVWNRLTSNFWLPEKVPLSNDIPAWQTLTVVEQQLTMRVFTGLTLLDTLQNVIGAPSLMPDALTPHEEAVLSNISFMEAVHARSYSSIFSTLCQTKDVDAAYAWSEENAPLQRKAQIIQQHYRGDDPLKKKIASVFLESFLFYSGFWLPMYFSSRGKLTNTADLIRLIIRDEAVHGYYIGYKYQKNMEKISLGQREELKSFAFDLLLELYDNELQYTDELYAETPWADDVKAFLCYNANKALMNLGYEPLFPAEMAEVNPAILAALSPNADENHDFFSGSGSSYVMGKAVETEDEDWNF”, which “total protein half-life in vivo” value [1] is on record?
A: 3.43 ± 1.1 h

Q: What about the “total protein half-life in vivo” value [2] of the same sequence?
A: 3.14 ± 0.99 h

Q: And the “total protein half-life in vivo” value [3]?
A: 2.03 h

Q: What about the “total protein half-life in vivo” value [4] of the same sequence?
A: 2.18 ± 0.23 h

Q: And the “total protein half-life in vivo” value [5]?
A: 3.25 ± 0.41 h

Q: What about the “total protein half-life in vivo” value [6] of the same sequence?
A: 4.27 h

Q: And the “total protein half-life in vivo” value [7]?
A: 1.85 h

Q: And the “total protein half-life in vivo” value [8]?
A: 6.6 h

Q: With “MKLTDADNAADGIFFPALEQNMMGAVLINENDEVMFFNPAAEKLWGYKREEVIGNNIDMLIPRDLRPAHPEYIRHNREGGKARVEGMSRELQLEKKDGSKIWTRFALSKVSAEGKVYYLALVRDASVEMAQKEQTRQLIIAVDHLDRPVIVLDPERHIVQCNRAFTEMFGYCISEASGMQPDTLLNIPEFPADNRIRLQQLLWKTARDQDEFLLLTRTGEKIWIKASISPVYDVLAHLQNLVMTFSDITEERQIRQLEGNILAAMCSSPPFHEMGEIICRNIESVLNESHVSLFALRNGMPIHWASSSHGAEIQNAQSWSATIRQRDGAPAGILQIKTSSGAETSAFIERVADISQHMAALALEQEKSRQHIEQLIQFDPMTGLPNRNNLHNYLDDLVDKAVSPVVYLIGVDHIQDVIDSLGYAWADQALLEVVNRFREKLKPDQYLCRIEGTQFVLVSLENDVSNITQIADELRNVVSKPIMIDDKPFPLTLSIGISYDLGKNRDYLLSTAHNAMDYIRKNGGNGWQFFSPAMNEMVKERLVLGAALKEAISNNQLKLVYQPQIFAETGELYGIEALARWHDPLHGHVPPSRFIPLAEEIGEIENIGRWVIAEACRQLAEWRSQNIHIPALSVNLSALHFRSNQLPNQVSDAMHAWGIDGHQLTVEITESMMMEHDTEIFKRIQILRDMGVGLSVDDFGTGFSGLSRLVSLPVTEIKIDKSFVDRCLTEKRILALLEAITSIGQSLNLTVVAEGVETKEQFEMLRKIHCRVIQGYFFSRPLPAEEIPGWMSSVLPLKI” as the sequence, how does the “total protein half-life in vivo” value [1] read?
A: 5.66 ± 0.45 h

Q: And the “total protein half-life in vivo” value [2]?
A: 3.42 ± 0.28 h

Q: What about the “total protein half-life in vivo” value [9] of the same sequence?
A: 4.21 ± 0.49 h

Q: What about the “total protein half-life in vivo” value [10] of the same sequence?
A: 3.8 ± 0.26 h

Q: What about the “total protein half-life in vivo” value [3] of the same sequence?
A: 3.55 ± 0.9 h

Q: What about the “total protein half-life in vivo” value [4] of the same sequence?
A: 1.63 ± 0.42 h

Q: What about the “total protein half-life in vivo” value [5] of the same sequence?
A: 4.27 ± 0.69 h

Q: What about the “total protein half-life in vivo” value [6] of the same sequence?
A: 6.85 ± 0.2 h

Q: And the “total protein half-life in vivo” value [7]?
A: 4.01 ± 0.26 h

Q: And the “total protein half-life in vivo” value [11]?
A: 7.043 ± 0.059 h

Q: What about the “total protein half-life in vivo” value [12] of the same sequence?
A: 2.56 ± 0.83 h

Q: What about the “total protein half-life in vivo” value [8] of the same sequence?
A: 4.93 ± 0.014 h

Q: For “MKLTIIRLEKFSDQDRIDLQKIWPEYSPSSLQVDDNHRIYAARFNERLLAAVRVTLSGTEGALDSLRVREVTRRRGVGQYLLEEVLRNNPGVSCWWMADAGVEDRGVMTAFMQALGFTAQQGGWEKC”, which “total protein half-life in vivo” value [1] is on record?
A: 4.23 ± 0.29 h

Q: What about the “total protein half-life in vivo” value [2] of the same sequence?
A: 3.9 ± 0.53 h

Q: What about the “total protein half-life in vivo” value [9] of the same sequence?
A: 5.19 h

Q: What about the “total protein half-life in vivo” value [3] of the same sequence?
A: 3.46 ± 0.21 h

Q: And the “total protein half-life in vivo” value [5]?
A: 6.2 ± 1.2 h

Q: And the “total protein half-life in vivo” value [6]?
A: 11.91 ± 0.065 h

Q: And the “total protein half-life in vivo” value [7]?
A: 3.31 h

Q: And the “total protein half-life in vivo” value [11]?
A: 6.11 ± 1.4 h

Q: What about the “total protein half-life in vivo” value [12] of the same sequence?
A: 5.99 ± 0.11 h

Q: And the “total protein half-life in vivo” value [8]?
A: 12.9 ± 2.6 h

Q: With “MKLTLKNLSMAIMMSTIVMGSSAMAADSNEKIVIAHRGASGYLPEHTLPAKAMAYAQGADYLEQDLVMTKDDNLVVLHDHYLDRVTDVADRFPDRARKDGRYYAIDFTLDEIKSLKFTEGFDIENGKKVQTYPGRFPMGKSDFRVHTFEEEIEFVQGLNHSTGKNIGIYPEIKAPWFHHQEGKDIAAKTLEVLKKYGYTGKDDKVYLQCFDADELKRIKNELEPKMGMELNLVQLIAYTDWNETQQKQPDGSWVNYNYDWMFKPGAMKQVAEYADGIGPDYHMLIEETSQPGNIKLTGMVQDAQQNKLVVHPYTVRSDKLPEYTPDVNQLYDALYNKAGVNGLFTDFPDKAVKFLNKE” as the sequence, how does the “total protein half-life in vivo” value [1] read?
A: 5.71 ± 0.74 h

Q: What about the “total protein half-life in vivo” value [2] of the same sequence?
A: 6.03 ± 0.55 h

Q: What about the “total protein half-life in vivo” value [9] of the same sequence?
A: 5.36 ± 0.34 h

Q: And the “total protein half-life in vivo” value [10]?
A: 7.08 ± 0.86 h

Q: And the “total protein half-life in vivo” value [3]?
A: 4.739 ± 0.036 h

Q: And the “total protein half-life in vivo” value [4]?
A: 3.12 ± 0.32 h

Q: What about the “total protein half-life in vivo” value [5] of the same sequence?
A: 6.48 ± 0.5 h

Q: And the “total protein half-life in vivo” value [6]?
A: 11.4 ± 0.14 h

Q: And the “total protein half-life in vivo” value [7]?
A: 5.53 ± 0.091 h

Q: And the “total protein half-life in vivo” value [11]?
A: 10.9 ± 1.6 h

Q: What about the “total protein half-life in vivo” value [12] of the same sequence?
A: 5.23 ± 0.11 h

Q: And the “total protein half-life in vivo” value [8]?
A: 11.7 ± 0.17 h

Q: Which “total protein half-life in vivo” value [1] does the source give for “MKLTTHHLRTGAALLLAGILLAGCDQSSSDAKHIKVGVINGAEQDVAEVAKKVAKEKYGLDVELVGFSGSLLPNDATNHGELDANVFQHRPFLEQDNQAHGYKLVAVGNTFVFPMAGYSKKIKTVAQIKEGATVAIPNDPTNLGRALLLLQKEKLITLKEGKGLLPTALDITDNPRHLQIMELEGAQLPRVLDDPKVDVAIISTTYIQQTGLSPVHDSVFIEDKNSPYVNILVAREDNKNAENVKEFLQSYQSPEVAKAAETIFNGGAVPGW” here?
A: 5.58 ± 0.19 h

Q: And the “total protein half-life in vivo” value [2]?
A: 6.82 ± 1.4 h

Q: What about the “total protein half-life in vivo” value [10] of the same sequence?
A: 6.47 ± 0.86 h

Q: And the “total protein half-life in vivo” value [3]?
A: 6.67 ± 0.91 h

Q: What about the “total protein half-life in vivo” value [4] of the same sequence?
A: 2.86 ± 0.047 h

Q: What about the “total protein half-life in vivo” value [5] of the same sequence?
A: 5.49 ± 0.059 h

Q: And the “total protein half-life in vivo” value [6]?
A: 10.7 ± 1.3 h

Q: What about the “total protein half-life in vivo” value [7] of the same sequence?
A: 5.44 ± 0.46 h

Q: And the “total protein half-life in vivo” value [11]?
A: 12.6 ± 2.8 h

Q: And the “total protein half-life in vivo” value [12]?
A: 5.38 ± 0.23 h

Q: And the “total protein half-life in vivo” value [8]?
A: 10.6 ± 0.015 h

Q: Which results are given for “MKLVGSYTSPFVRKLSILLLEKGITFEFINELPYNADNGVAQFNPLGKVPVLVTEEGECWFDSPIIAEYIELMNVAPAMLPRDPLESLRVRKIEALADGIMDAGLVSVREQARPAAQQSEDELLRQREKINRSLDVLEGYLVDGTLKTDTVNLATIAIACAVGYLNFRRVAPGWCVDRPHLVKLVENLFSRESFARTEPPKA [P0ACA1]”?
A: total protein half-life in vivo [1]: 5.35 ± 1.8 h; total protein half-life in vivo [2]: 3.78 ± 0.28 h; total protein half-life in vivo [9]: 4.118 ± 0.04 h; total protein half-life in vivo [10]: 4.31 ± 0.48 h; total protein half-life in vivo [3]: 4.22 ± 0.18 h; total protein half-life in vivo [4]: 3.22 ± 0.13 h; total protein half-life in vivo [5]: 5.52 ± 0.17 h; total protein half-life in vivo [6]: 10.7 ± 0.87 h; total protein half-life in vivo [7]: 4.16 ± 0.18 h; total protein half-life in vivo [11]: 6.719 ± 0.0095 h; total protein half-life in vivo [12]: 5.51 ± 0.23 h; total protein half-life in vivo [8]: 12 ± 1 h

Q: Which “total protein half-life in vivo” value [1] does the source give for “MKMIEVVAAIIERDGKILLAQRPAQSDQAGLWEFAGGKVEPDESQRQALVRELREELGIEATVGEYVASHQREVSGRIIHLHAWHVPDFHGTLQAHEHQALVWCSPEEALQYPLAPADIPLLEAFMALRAARPAD” here?
A: 4.73 h

Q: What about the “total protein half-life in vivo” value [2] of the same sequence?
A: 4.63 h

Q: What about the “total protein half-life in vivo” value [10] of the same sequence?
A: 5.61 h

Q: And the “total protein half-life in vivo” value [3]?
A: 4.07 h

Q: What about the “total protein half-life in vivo” value [4] of the same sequence?
A: 3.25 h

Q: And the “total protein half-life in vivo” value [5]?
A: 4.61 ± 0.59 h

Q: What about the “total protein half-life in vivo” value [6] of the same sequence?
A: 8.63 h

Q: And the “total protein half-life in vivo” value [7]?
A: 3.82 h

Q: And the “total protein half-life in vivo” value [11]?
A: 6.31 ± 0.54 h

Q: What about the “total protein half-life in vivo” value [12] of the same sequence?
A: 4.59 h

Q: And the “total protein half-life in vivo” value [8]?
A: 8.52 ± 0.99 h

Reference: the supplement of paper PMC11246515
